Reference: paper PMC8691596
Values joined by “and” are separate entries in the source; they are usually repeats but may differ in a detail not shown here. Equal entries are not always repeated. Where two headings read alike, the source gives them in different places.

Legend:
[1] = target: mouse FcγRI (CD64), histidine-tagged recombinant (mouse) (UniProt P26151); assay: SPR; His-tagged Fc receptor captured by anti-histidine antibody immobilised on CM5; antibody injected at 100 μg/mL for 1 min; response about 5 s before end of injection, blank subtracted; 25°C, HBS-EP+; Biacore T200
[2] = target: rat FcγRI (CD64), histidine-tagged recombinant (rat); assay: as above
[3] = target: human FcγRIIIa (CD16a) V158 allele, histidine-tagged recombinant (human) (UniProt P08637); assay: as above
[4] = target: human FcγRIIb (CD32b), histidine-tagged recombinant (human) (UniProt P31994); assay: as above
[5] = target: human FcγRIIa (CD32a) R131 allele, histidine-tagged recombinant (human) (UniProt P12318); assay: as above
[6] = target: human FcγRIIIb (CD16b) NA2 allele, histidine-tagged recombinant (human) (UniProt O75015); assay: as above
[7] = target: human FcγRIIIa (CD16a) F158 allele, histidine-tagged recombinant (human) (UniProt P08637); assay: as above
[8] = target: human FcγRI (CD64), histidine-tagged recombinant (human) (UniProt P12314); assay: as above
[9] = target: human FcγRIIb (CD32b), histidine-tagged recombinant (human) (UniProt P31994)
[10] = target: human FcγRIIIa (CD16a) V158 allele, histidine-tagged recombinant (human) (UniProt P08637)
[11] = target: human FcγRI (CD64), histidine-tagged recombinant (human) (UniProt P12314); assay: SPR; His-tagged Fc receptor captured by anti-histidine antibody immobilised on CM5; antibody injected at 100 μg/mL for 1 min; response about 5 s before end of injection, blank subtracted; 25°C, HBS-EP+; Biacore T200; remark: listed apart in the source
[12] = target: human FcγRI (CD64), histidine-tagged recombinant (human) (UniProt P12314)
[13] = target: human FcRn, histidine-tagged recombinant (human) (UniProt P55899); assay: SPR; human FcRn immobilised directly on CM5 (EDC/NHS); antibody injected at 20 μg/mL (dose response in Fig 4); HBS-EP+ pH 6.0, 25°C; response normalised to wild type

Sequence of human FcγRIIb (CD32b), histidine-tagged recombinant (human) (P31994 43-217): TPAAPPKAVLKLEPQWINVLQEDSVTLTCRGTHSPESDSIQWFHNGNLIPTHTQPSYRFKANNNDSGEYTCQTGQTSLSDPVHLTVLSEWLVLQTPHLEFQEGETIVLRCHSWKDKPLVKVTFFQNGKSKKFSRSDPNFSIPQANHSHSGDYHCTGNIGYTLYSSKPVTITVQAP
Sequence of human FcγRIIIb (CD16b) NA2 allele, histidine-tagged recombinant (human) (O75015 17-200): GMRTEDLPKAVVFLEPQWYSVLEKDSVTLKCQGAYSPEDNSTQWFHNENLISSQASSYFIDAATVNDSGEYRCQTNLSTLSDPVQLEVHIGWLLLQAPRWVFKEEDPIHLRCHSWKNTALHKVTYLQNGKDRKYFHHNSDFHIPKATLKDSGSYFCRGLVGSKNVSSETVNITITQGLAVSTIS
Sequence of human FcγRI (CD64), histidine-tagged recombinant (human) (P12314 16-292): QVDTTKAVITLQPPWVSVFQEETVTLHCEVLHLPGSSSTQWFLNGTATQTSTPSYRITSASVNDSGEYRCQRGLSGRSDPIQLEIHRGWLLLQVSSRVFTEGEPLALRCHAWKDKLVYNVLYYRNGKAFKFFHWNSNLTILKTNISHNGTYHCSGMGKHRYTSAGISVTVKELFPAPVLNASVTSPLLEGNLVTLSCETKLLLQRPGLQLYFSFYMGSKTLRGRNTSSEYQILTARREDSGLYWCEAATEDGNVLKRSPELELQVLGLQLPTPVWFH
Sequence of human FcγRIIIa (CD16a) V158 allele, histidine-tagged recombinant (human) (P08637 17-208): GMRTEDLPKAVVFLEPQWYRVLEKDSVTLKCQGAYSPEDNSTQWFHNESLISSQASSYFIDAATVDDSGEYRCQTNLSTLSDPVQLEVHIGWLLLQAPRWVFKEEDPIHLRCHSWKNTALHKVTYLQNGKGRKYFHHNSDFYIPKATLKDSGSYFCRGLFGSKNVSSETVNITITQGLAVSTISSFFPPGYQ
Sequence of human FcγRIIIa (CD16a) F158 allele, histidine-tagged recombinant (human) (P08637 17-208): as above
Sequence of human FcγRIIa (CD32a) R131 allele, histidine-tagged recombinant (human) (P12318 34-217): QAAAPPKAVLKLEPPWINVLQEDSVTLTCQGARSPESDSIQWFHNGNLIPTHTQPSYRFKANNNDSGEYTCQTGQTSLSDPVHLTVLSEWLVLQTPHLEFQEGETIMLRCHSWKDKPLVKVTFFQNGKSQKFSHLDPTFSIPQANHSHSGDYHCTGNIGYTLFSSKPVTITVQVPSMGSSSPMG
Sequence of mouse FcγRI (CD64), histidine-tagged recombinant (mouse) (P26151 25-297): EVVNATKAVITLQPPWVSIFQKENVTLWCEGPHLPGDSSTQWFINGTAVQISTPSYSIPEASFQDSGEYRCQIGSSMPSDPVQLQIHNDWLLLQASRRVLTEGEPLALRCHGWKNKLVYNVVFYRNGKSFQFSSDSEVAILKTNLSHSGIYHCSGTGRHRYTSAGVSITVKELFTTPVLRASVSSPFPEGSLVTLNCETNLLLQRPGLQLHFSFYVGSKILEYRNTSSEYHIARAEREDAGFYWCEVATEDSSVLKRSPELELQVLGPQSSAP

Row | mean response [1] | mean response [2] | mean response [3] | mean response [4] | mean response [5] | mean response [6] | mean response [7] | mean response [8] | Mean normalised luminescence (% of wild-type reference); Promega Fc effector bioassay, Jurkat NFAT-luciferase cells with the receptor + Raji cells, antibody 10 μg/mL [9] | Mean normalised luminescence (% of wild-type reference); Promega Fc effector bioassay, Jurkat NFAT-luciferase cells with the receptor + Raji cells, antibody 10 μg/mL [10] | mean response [11] | Mean normalised luminescence (% of wild-type reference); Promega Fc effector bioassay, Jurkat NFAT-luciferase cells with the receptor + Raji cells, antibody 10 μg/mL [12] | response [11] | mean normalised binding response (% of wild-type reference) [13] | Substance
1 | -3.3 RU | -4.9 RU | – | – | – | – | – | – | – | – | – | – | – | – | anti-CD3 IgG1 L234A/L235A (LALA) (antibody)
2 | -6.2 RU | -5.2 RU | – | – | – | – | – | – | – | – | – | – | – | – | anti-CD3 IgG1 L234A/L235A/P329G (LALAPG) (antibody)
3 | -5.9 RU | -4.2 RU | -14.4 RU | -5.1 RU | -4.8 RU | -6.4 RU | -4.7 RU | -5.2 RU | – | – | – | – | – | – | anti-CD3 IgG1 L234G/L235S/G236R (antibody)
4 | -7.5 RU | -5.1 RU | -11.3 RU | 3.9 RU | 1.4 RU | 4.7 RU | 3.3 RU | -5.2 RU | – | – | – | – | – | – | anti-CD3 IgG1 L234S/L235T/G236R (antibody)
5 | -8.1 RU | -4.8 RU | -12.7 RU | -4.2 RU | -3.4 RU | -4.8 RU | -3.4 RU | -5.4 RU | – | – | – | – | – | – | anti-CD3 IgG1 L234S/L235V/G236R (antibody)
6 | -5.8 RU | -2.4 RU | -10.7 RU | -2.8 RU | -0.2 RU | -3 RU | -0.9 RU | -3.2 RU | – | – | – | – | – | – | anti-CD3 IgG1 L234T/L235Q/G236R (antibody)
7 | -5.5 RU | -3.5 RU | -8.6 RU | -3.3 RU | -2.8 RU | -4.4 RU | -2 RU | -3.1 RU | – | – | – | – | – | – | anti-CD3 IgG1 L234T/L235T/G236R (antibody)
8 | -12.2 RU | -5.3 RU | – | – | – | – | – | – | 40.6% | – | – | – | – | – | anti-CD20 IgG1 L234A/L235A (LALA) (antibody)
9 | 2.4 RU | 0.7 RU | – | – | – | – | – | – | 1.7% | 2.1% | – | – | – | – | anti-CD20 IgG1 L234A/L235A/P329G (LALAPG) (antibody)
10 | -2.1 RU | -3.9 RU | 1 RU | -0.1 RU | 2.1 RU | -1.6 RU | 1 RU | -1.5 RU | 1.7% | 2.5% | 1.9 RU | – | – | – | anti-CD20 IgG1 L234G/L235S/G236R (antibody)
11 | -5.4 RU | -2.4 RU | -6.3 RU | 0.5 RU | 2.6 RU | -3 RU | 1.9 RU | -1.3 RU | – | – | – | – | – | – | anti-CD20 IgG1 L234S/L235T/G236R (antibody)
12 | 0.1 RU | -0.4 RU | 0.8 RU | -0.8 RU | 0.3 RU | 0.6 RU | 0 RU | -1.6 RU | 1.7% | 2.1% | 2.4 RU | 1.9% | 2.1 RU and 4.3 RU | – | anti-CD20 IgG1 L234S/L235V/G236R (antibody)
13 | -4.1 RU | -2.5 RU | -4 RU | -1.1 RU | 0.2 RU | -1.5 RU | -0.5 RU | -1.9 RU | 1.7% | 2.1% | 3 RU | 1.9% | 4.5 RU | – | anti-CD20 IgG1 L234T/L235Q/G236R (antibody)
14 | – | -0.8 RU | -0.2 RU | 0.6 RU | 1.9 RU | -0.1 RU | 1.6 RU | -2.7 RU | 1.9% | – | – | 1.9% | – | – | anti-CD20 IgG1 L234T/L235T/G236R (antibody)
15 | – | – | – | – | – | – | – | – | 1.6% | – | – | – | – | – | anti-CD20 IgG1 N297Q (aglycosyl) (antibody)
16 | 1.8 RU | -0.7 RU | – | – | – | – | – | 452 RU | – | – | – | – | – | 105% | anti-CD52 IgG1 L234A/L235A (LALA) (antibody)
17 | -2.1 RU | -0.8 RU | – | – | – | – | – | 33.7 RU | – | – | – | – | – | 105% | anti-CD52 IgG1 L234A/L235A/P329G (LALAPG) (antibody)
18 | -2.3 RU | -1.7 RU | -2.4 RU | -5.5 RU | -3.5 RU | -4.8 RU | -4.2 RU | -3.5 RU | – | – | – | – | – | 118% | anti-CD52 IgG1 L234G/L235S/G236R (antibody)
19 | -4.6 RU | -2.9 RU | -5.6 RU | -4.4 RU | -3.1 RU | -4.3 RU | -3.3 RU | -5.1 RU | – | – | – | – | – | 116% | anti-CD52 IgG1 L234S/L235T/G236R (antibody)
20 | -2.5 RU | -2.1 RU | -1.3 RU | 2.4 RU | -4.2 RU | 2.6 RU | 2.2 RU | -20.3 RU | – | – | – | – | – | 119% | anti-CD52 IgG1 L234S/L235V/G236R (antibody)
21 | -1.4 RU | 0.5 RU | -3.1 RU | 1.3 RU | -2.2 RU | 0.4 RU | 0.7 RU | -10.6 RU | – | – | – | – | – | 115% | anti-CD52 IgG1 L234T/L235Q/G236R (antibody)
22 | -3.9 RU | -3.4 RU | -2 RU | -0.1 RU | -8.7 RU | 0.8 RU | -1.9 RU | -20.7 RU | – | – | – | – | – | 118% | anti-CD52 IgG1 L234T/L235T/G236R (antibody)
23 | 50.4 RU | – | – | – | – | – | – | 431 RU | – | – | – | – | – | 103% | anti-CD52 IgG1 N297Q (aglycosyl) (antibody)
